# Experimental data: patent publication US20240052048A1
# Assays:
# [1] = biological target: human-BAFF-Fc (human), Q9Y275; experiment: ELISA (OD450), plate coated with BAFF 8 µg/ml, human BCMA titrated up to 10 µg/mL; EC50 table in the figure; settings: remark: other sources report otherwise
# [2] = biological target: human-BAFF-Fc (human), Q9Y275; experiment: ELISA (OD450), plate coated with BAFF 2 µg/ml, human BCMA titrated up to 10 µg/mL; EC50 table in the figure; settings: remark: other sources report otherwise
# [3] = biological target: human-BAFF-Fc (human), Q9Y275; experiment: ELISA (OD450), plate coated with BAFF 1 µg/ml, human BCMA titrated up to 10 µg/mL; EC50 table in the figure; settings: remark: other sources report otherwise
# [4] = biological target: human-BAFF-Fc (human), Q9Y275; experiment: ELISA (OD450), plate coated with BAFF 4 µg/ml, human BCMA titrated up to 10 µg/mL; EC50 table in the figure; settings: remark: other sources report otherwise
# [5] = biological target: cyno-BCMA-Fc (cyno (monkey)); experiment: ELISA (OD450), GSK2857916 titrated up to 10 µg/mL on Monkey BCMA-Fc; EC50 table in the figure
# [6] = biological target: cyno-BCMA-His (cyno (monkey)); experiment: ELISA (OD450), GSK2857916 titrated up to 10 µg/mL on Monkey BCMA-His; EC50 table in the figure
# Chain of human-BAFF-Fc (human), Q9Y275 (Q9Y275 134-285 limits assumed): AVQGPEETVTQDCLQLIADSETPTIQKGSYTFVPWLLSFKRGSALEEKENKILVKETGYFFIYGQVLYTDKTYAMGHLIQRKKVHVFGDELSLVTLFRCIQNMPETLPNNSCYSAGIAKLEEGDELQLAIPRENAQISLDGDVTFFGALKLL
Binder,EC50 [1],EC50 [2],EC50 [3],EC50 [4],EC50 [5],EC50 [6]
"human BCMA (recombinant antigen, tag not stated for the assay), Q02223 1-54 (receptor, UniProt Q02223 1-54, looked up) MLQMAGQCSQNEYFDSLLHACIPCQLRCSSNTPPLTCQRYCNASVTNSVKGTNA",0.697 µg/mL,0.553 µg/mL,0.586 µg/mL,0.559 µg/mL,,
"GSK2857916 (positive control antibody, not coupled to the toxin molecule) (antibody, V domains shown) VH: QVQLVQSGAEVKKPGSSVKVSCKASGGTFSNYWMHWVRQAPGQGLEWMGATYRGHSDTYYNQKFKGRVTITADKSTSTAYMELSSLRSEDTAVYYCARGAIYDGYDVLDNWGQGTLVTVSS VL: DIQMTQSPSSLSASVGDRVTITCSASQDISNYLNWYQQKPGKAPKLLIYYTSNLHSGVPSRFSGSGSGTDFTLTISSLQPEDFATYYCQQYRKLPWTFGQGTKLEIK",,,,,0.336 µg/mL,0.463 µg/mL
